Target: Human MUC1 (full length), on cells (human) (UniProt P15941)
Experiment: cell-based or functional assay

Human MUC1 (full length), on cells (human), sequence (P15941 24-1255 limits assumed): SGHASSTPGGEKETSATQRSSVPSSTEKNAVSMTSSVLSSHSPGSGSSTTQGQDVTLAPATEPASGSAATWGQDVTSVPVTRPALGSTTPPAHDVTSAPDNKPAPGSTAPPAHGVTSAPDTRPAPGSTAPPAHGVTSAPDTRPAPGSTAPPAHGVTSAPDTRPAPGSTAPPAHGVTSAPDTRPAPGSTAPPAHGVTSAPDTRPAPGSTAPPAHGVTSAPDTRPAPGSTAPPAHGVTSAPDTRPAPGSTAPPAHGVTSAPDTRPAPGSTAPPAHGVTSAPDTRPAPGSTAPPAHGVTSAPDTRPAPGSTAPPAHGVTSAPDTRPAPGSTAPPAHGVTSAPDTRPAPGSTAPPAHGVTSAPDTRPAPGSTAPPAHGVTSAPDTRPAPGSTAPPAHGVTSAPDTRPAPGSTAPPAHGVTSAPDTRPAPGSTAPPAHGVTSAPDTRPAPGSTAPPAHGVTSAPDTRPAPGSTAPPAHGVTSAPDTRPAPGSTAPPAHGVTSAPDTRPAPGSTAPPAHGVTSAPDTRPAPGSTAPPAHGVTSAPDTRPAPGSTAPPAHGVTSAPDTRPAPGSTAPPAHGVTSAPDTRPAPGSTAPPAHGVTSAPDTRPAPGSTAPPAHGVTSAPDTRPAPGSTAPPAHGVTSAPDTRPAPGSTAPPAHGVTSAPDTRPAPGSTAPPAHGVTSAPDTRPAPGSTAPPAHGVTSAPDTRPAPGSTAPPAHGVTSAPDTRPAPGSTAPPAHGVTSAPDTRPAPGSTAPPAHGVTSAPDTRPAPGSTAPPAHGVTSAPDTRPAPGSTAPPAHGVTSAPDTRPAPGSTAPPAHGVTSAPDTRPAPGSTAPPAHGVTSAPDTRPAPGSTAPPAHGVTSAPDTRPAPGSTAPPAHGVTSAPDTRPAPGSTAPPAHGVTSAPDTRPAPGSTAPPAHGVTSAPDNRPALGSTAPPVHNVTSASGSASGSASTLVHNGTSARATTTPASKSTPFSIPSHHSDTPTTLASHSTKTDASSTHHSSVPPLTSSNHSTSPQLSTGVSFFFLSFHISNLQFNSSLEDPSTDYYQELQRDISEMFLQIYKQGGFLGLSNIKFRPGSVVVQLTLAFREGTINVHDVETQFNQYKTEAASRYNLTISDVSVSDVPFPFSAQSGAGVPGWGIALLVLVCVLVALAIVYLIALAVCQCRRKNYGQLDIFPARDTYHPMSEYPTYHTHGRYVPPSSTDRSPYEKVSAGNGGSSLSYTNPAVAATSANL

B1: MUC1 5F3-hFc-AF (antibody, V domains shown)
VH: DVQVQESGPDLVKPSQSLSLTCTVTGHSITRGSSWHWIRQFPGNKLEWMGYIHYGGGTSYNPSLKSRISITRDTSKNQFFLQLNSVTTEDTATFFCARYSYDITYRWFFDVWGAGTTVIVSS
VL: DILLTQSPAILSVSPGERVSFSCRASQNIGTSIHWYQQRKNGSPRLLIKYASESISGIPSRFSGSGSGTDFTLSINSVESEDMADYYCQQNNNWPLTFGAGTKLELK
- Cell lysis activity EC50, T-47D/nanoluc in human whole blood: 0.464 nM
- Cell lysis activity Emax, T-47D/nanoluc in human whole blood: 7.78%

B2: huBG219P-E39-AF (antibody, human IgG1, V domains shown)
VH: EVQLLESGGGLVQPGGSLRLSCAASGFTFNDYIMSWVRQAPGKGLEWVATVSSGGDNTYYPDSVKGRFTISRDNSKNTLYLQMNSLRAEDTAVYYCTRYGGLGAMDYWGQGTLVTVSS
VL: DIQMTQSPSSLSASVGDRVTITCRASGNIHNYLTWYQQKPGKAPKLLIYNAKTLASGVPSRFSGSGSGTDFTLTISSLQPEDFATYYCQHFWSVPYTFGQGTKLEIK
modifications: afucosylated Fc glycan (-AF; expressed with 2F-peracetyl-fucose)
- ADCC EC50, HCC827 (MUC1 medium), NK92mi/CD16A F158 effectors, w/o huIgG: 11.5 nM
- ADCC EC50, T-47D (MUC1 high), NK92mi/CD16A F158 effectors, w/o huIgG: 1.3 nM
- ADCC EC50, T-47D (MUC1 high), NK92mi/CD16A V158 effectors, w/o huIgG: 0.603 nM
- ADCC Emax, H358 (MUC1 low), NK92mi/CD16A F158 effectors, 10 mg/ml huIgG1: 10.7%
- ADCC Emax, H358 (MUC1 low), NK92mi/CD16A F158 effectors, w/o huIgG: 10.2%
- ADCC Emax, H358 (MUC1 low), NK92mi/CD16A V158 effectors, 10 mg/ml huIgG1: 15.5%
- ADCC Emax, H358 (MUC1 low), NK92mi/CD16A V158 effectors, w/o huIgG: 15.6%
- ADCC Emax, HCC827 (MUC1 medium), NK92mi/CD16A F158 effectors, 10 mg/ml huIgG1: 31%
- ADCC Emax, HCC827 (MUC1 medium), NK92mi/CD16A F158 effectors, w/o huIgG: 36.8%
- ADCC Emax, HCC827 (MUC1 medium), NK92mi/CD16A V158 effectors, 10 mg/ml huIgG1: 26.7%
- ADCC Emax, HCC827 (MUC1 medium), NK92mi/CD16A V158 effectors, w/o huIgG: 25%
- ADCC Emax, T-47D (MUC1 high), NK92mi/CD16A F158 effectors, 10 mg/ml huIgG1: 25.7%
- ADCC Emax, T-47D (MUC1 high), NK92mi/CD16A F158 effectors, w/o huIgG: 48.2%
- ADCC Emax, T-47D (MUC1 high), NK92mi/CD16A V158 effectors, 10 mg/ml huIgG1: 19.2%
- ADCC Emax, T-47D (MUC1 high), NK92mi/CD16A V158 effectors, w/o huIgG: 33.6%
- Cell lysis activity EC50, T-47D (MUC1 high) in human whole blood: 1.25 nM
- Cell lysis activity Emax, H358 (MUC1 low) in human whole blood: 8.6%
- Cell lysis activity Emax, HCC827 (MUC1 medium) in human whole blood: 14.1%
- Cell lysis activity Emax, T-47D (MUC1 high) in human whole blood: 20.2%
- Phagocytosis (ADCP) EC50, T-47D, human M2 macrophages, w/o huIgG: 0.05 nM
- Phagocytosis (ADCP) Emax, T-47D, human M2 macrophages, 10 mg/ml huIgG1: 17.6%
- Phagocytosis (ADCP) Emax, T-47D, human M2 macrophages, w/o huIgG: 56.4%
